Experiments:
[1] = system: Arabidopsis thaliana glucosyltransferase UGT84A1 (84A1, GT 3, SEQ ID NO:8); conditions: 20° C., pH 6; calculated from Vmax of Lim et al. 2001; cited from earlier work
[2] = system: Grape GT; experiment: Substrate specificity of the purified recombinant Grape GT, HPLC analysis of glucose ester formation; format: biochemical, Vitis sp.; conditions: relative to pHBA = 100, 10 mM test substrate, 0.0467 μM purified Grape GT, 15 min, 25° C.
Method: To rule out the possibility that the Grape GT can also attach glucose to the hydroxyl group of pHBA, the products of the in vitro enzyme reaction were directly analyzed by reverse phase HPLC. […] Following a 1-min incubation period at 25° C., the reactions were terminated by the addition of an equal volume of 0.2 N HCl. […] The column was developed at 1 mL/min with a linear gradient of 10–50% Buffer B that was generated over a 20-min period, and absorbance was monitored at 254 nm. […] To test this hypothesis, Applicants' decided to examine the substrate specificity of the Grape GT in greater detail. […] Following a 15-min incubation period at 25° C., the reactions were quenched with an equal volume of 0.3 M HCl and the entire reaction mixture was analyzed by HPLC as described above in Example 6. The products of the various reactions were identified using authentic chemical standards. The retention times and extinction coefficients of these compounds were determined using the same column conditions. […] Regardless of substrate, the purified recombinant Grape GT only catalyzed the formation of glucose esters, which in all cases co-migrated precisely with the authentic compounds. […] Since the glucose ester of the latter compound is the precursor for the synthesis of simple and complex tannins that are extremely abundant in grapes, it is possible that gallic acid is a physiological substrate of the Grape GT. The data shown in Table 3 make it clear that although the Grape GT glucosylated mHBA (3-hydroxybenzoic […]) at a reasonable rate, product formation with oHBA (2-hydroxybenzoic acid) was not observed.

[3] = Acid and base hydrolysis of pHBA glucose conjugates, HPLC; format: physicochemical; conditions: 48 h at 60° C. with NaOH or HCL, 0.19 mM
Method: The initial concentration of both compounds was 0.19 mM and the total reaction volume was […]. Reactions were conducted in tightly sealed polypropylene tubes to prevent evaporative loss. […] Prior to HPLC analysis, the acid hydrolyzed samples were diluted with an equal volume of NaOH that contained a 0.2 mM excess of NaOH relative to the original concentration of HCL. The base hydrolyzed samples were analyzed directly. Chemically synthesized pHBA phenolic and ester glucoside standards and free pHBA were used to calibrate the HPLC runs for retention times, and extinction coefficients for all three compounds were accurately determined under the conditions employed. Peak areas were integrated using the software package provided with the Hewlett Packard Chemstation, and values obtained with known amounts of the chemical standards were used to quantitate compounds of interest in the acid and base hydrolyzed samples.

[4] = target: CPL (Escherichia coli, UniProt P26602); experiment: Product inhibition of CPL by pHBA; format: biochemical, E. coli; conditions: read-out: inhibitory constant (Ki)
Sequence of CPL (P26602 whole entry): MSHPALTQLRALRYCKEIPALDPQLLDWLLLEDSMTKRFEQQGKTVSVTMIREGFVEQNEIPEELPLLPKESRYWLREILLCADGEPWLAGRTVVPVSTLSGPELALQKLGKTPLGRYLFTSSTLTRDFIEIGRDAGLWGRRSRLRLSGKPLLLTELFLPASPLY
Method: Although double transformant line 39 and the CPL control plant had essentially the same amount of CPL enzyme activity as measured in leaf extracts (Table 8), this doesn't necessarily reflect the situation in vivo. CPL enzyme assays are conducted under optimal conditions, and measure initial velocities in the presence of excess substrate and absence of products. Thus, the initial rate of product formation in the in vitro assay is strictly proportional to the amount of enzyme that is added to the cuvette. Consequently, if two plants had identical levels of CPL gene expression, leaf extracts prepared from these plants would theoretically yield the same initial velocity in the in vitro assay. […] Applicants confirmed these observations.

[5] = Continuous spectrophotometric UDP-glucosyltransferase assay, formation of pHBA glucose ester at 304 nm, E. coli cell-free extracts; format: biochemical; conditions: crude extract, 10 mM UDP-glucose, pH 7.3, 25° C.
Method: (§1) For protein production, the resulting recombinant strains were grown at 22° C. in 50 mL of LB media that contained kanamycin (50 μg/mL). At an A600 nm of ˜0.6, isopropyl-1-thio-β-D-galactopyranoside was added to a final concentration of 0.2 mM. Following a 22-h induction period at the same temperature, the cells were harvested by centrifugation and stored at −80° C. for subsequent manipulation as described below.
(§2) The frozen cell pellets were resuspended in 1.0 mL of a solution containing 100 mM Tris-HCl (pH 7.7), 5 mM MgSO4, 1 mM dithiothreitol, 0.03 mg/mL DNAse I, 0.5 mM phenylmethanesulfonyl fluoride, and passed once through a French pressure cell at 20,000 psi. Debris was removed by centrifugation (43,000×g, 60 min), and the resulting cell-free extracts, containing ˜15 mg of protein per mL, were supplemented with 5% glycerol and stored at −80° C. for subsequent measurements of enzyme activities. Protein concentrations were determined by the Bradford Method using bovine serum albumin as a standard.

[6] = Continuous spectrophotometric UDP-glucosyltransferase assay, formation of glucose ester of sinapic acid at 368 nm, E. coli cell-free extracts; format: biochemical; conditions: crude extract, 10 mM UDP-glucose, pH 7.3, 25° C.; for initial rate of product formation, 1 mM SA: 1 mM sinapic acid; for initial rate of product formation, 5 mM SA: 5 mM sinapic acid; for initial rate of product formation, 10 mM SA: 10 mM sinapic acid
Method: as §1, §2
(§3) The second assay is based on the increase in absorbance at 368 nm that accompanies the formation of the glucose ester of sinapic acid. The experimental conditions were the same as those described above, but the test substrate was sinapic acid and product formation was calculated using an extinction coefficient of 5,570 M^−1 that was obtained with the authentic chemically synthesized compound under identical conditions.

[7] = Ratio of enzyme activity with pHBA versus sinapic acid (spectrophotometric assays); format: biochemical; conditions: for Ratio of Activity pHBA/SA: Table 4, cell-free extracts, 10 mM pHBA or sinapic acid, 25° C.; for pHBA/SA ratio of enzyme activity: crude extract
Method: as §3

[8] = Reverse phase HPLC analysis of the products of the in vitro enzyme reaction with pHBA; format: biochemical
Method: To rule out the possibility that the Grape GT can also attach glucose to the hydroxyl group of pHBA, the products of the in vitro enzyme reaction were directly analyzed by reverse phase HPLC. […] Following a 1-min incubation period at 25° C., the reactions were terminated by the addition of an equal volume of 0.2 N HCl. The samples were briefly centrifuged, and 20-μL aliquots of the resulting supernatants were injected onto a Vydac 218TP54 Protein and Peptide C18 column, (Grace Vydac, Hesperia, Calif.) pre-equilibrated with 90% Buffer A (0.1% formic acid in water) and 10% Buffer B (methanol). The column was developed at 1 mL/min with a linear gradient of 10–50% Buffer B that was generated over a 20-min period, and absorbance was monitored at 254 nm.
In light of these observations, it was extremely important to analyze the reaction products of the Grape GT over a broader range of pH that encompasses physiological conditions. […] In addition, the reaction mixtures also contained 100 mM potassium phosphate buffer (pH 6.0, 7.0 or 8.0), 5 mM MgCl2, 5 mM UDP-glucose, 2 mM dithiothreitol, and 0.47 μM of the purified recombinant Grape GT. After a 15-min incubation period, the reactions were terminated by the addition of an equal volume of 0.3 M HCl and analyzed by reverse phase HPLC as described above. […]

[9] = Freeze/thaw stability of the purified recombinant Grape GT; format: physicochemical; conditions: diluted in buffer with 6% glycerol and 5 mM dithiothreitol, kept on ice, frozen to −80° C.
Method: For all the enzyme assays described below, frozen aliquots of the purified Grape GT were rapidly thawed and diluted to the desired concentration with ice-cold buffer containing 50 mM Tris-HCl (pH 7.6), 1 mM EDTA, 10 mM Na2SO3, 300 mM NaCl, 6% glycerol and 5 mM dithiothreitol.

For O=C(O)/C=C/c1ccc(O)cc1 [p-hydroxycinnamic acid], the “turnover number with p-hydroxycinnamic acid” value [1] is given as about 0.70 s⁻¹.

For COc1cc(/C=C/C(=O)O)cc(OC)c1O [Sinapic acid], the “Relative Rate of product formation” value [2] was 10.

In the case of O=C(O)/C=C/c1ccc(O)c(O)c1 [Caffeic acid, caffeic acid], the “Relative Rate of product formation” value [2] is reported as 25.

For O=C(O)c1cccc(O)c1 [MHBA, m-Hydroxybenzoic acid], the “Relative Rate of product formation” value [2] was 47.

In the case of COc1cc(/C=C/C(=O)O)ccc1O [Ferrulic acid, ferrulic acid], the “Relative Rate of product formation” value [2] is reported as 16.

For O=C(O[C@@H]1O[C@H](CO)[C@@H](O)[C@H](O)[C@H]1O)c1ccc(O)cc1 [pHBA glucose ester], the “susceptibility to acid and base hydrolysis” value [3] was “far more susceptible to acid and base hydrolysis than the pHBA phenolic glucoside”.

In the case of O=C(O)C=Cc1ccc(O)cc1 [PHCA, 4-hydroxycinnamic acid], the “Relative Rate of product formation” value [2] is reported as 56.

For O=C(O)c1ccccc1O [OHBA, o-Hydroxybenzoic acid], the “Relative Rate of product formation” value [2] was 0.

In the case of O=C(O)c1ccc(O)cc1 [PHBA, p-Hydroxybenzoic acid], the “Relative Rate of product formation” value [2] is reported as 100 and the Ki [4] is reported as about 2 µM.

In the case of O=C(O)c1cc(O)c(O)c(O)c1 [Gallic acid, 3,4,5-trihydoxybenzoic acid], the “Relative Rate of product formation” value [2] is reported as 64.

B1: GT 5: Arabidopsis UDP-glucosyltransferase, GenBank AL161541.2, SEQ ID NO:16 (protein, listed as Arabidopsis thaliana)
chain: MKMESSLPHVMLVSFPGQGHISPLLRLGKIIASKGLIVTFVTTEEPLGKKMRQANNIQDGVLKPVGLGFLRFEFFEDGFVYKEDFDLLQKSLEVSGKREIKNLVKKYEKQPVRCLINNAFVPWVCDIAEELQIPSAVLWVQSCACLAAYYYYHHQLVKFPTETEPEITVDVPFKPLTLKHDEIPSFLHPSSPLSSIGGTILEQIKRLHKPFSVLIETFQELEKDTIDHMSQLCPQVNFNPIGPLFTMAKTIRSDIKGDISKPDSDCIEWLDSREPSSVVYISFGTLAFLKQNQIDEIAHGILNSGLSCLWVLRPPLEGLAIEPHVLPLELEEKGKIVEWCQQEKVLAHPAVACFLSHCGWNSTMEALTSGVPVICFPQWGDQVTNAVYMIDVFKTGLRLSRGASDERIVPREEVAERLLEATVGEKAVELRENARRWKEEAESAVAYGGTSERNFQEFVDKLVDVKTMTNINNVV
With B1 the “initial rate of product formation, 1 mM pHBA” value [5] was 0.23 μM per min, the “initial rate of product formation, 5 mM pHBA” value [5] was 0.45 μM per min and the “initial rate of product formation, 10 mM pHBA” value [5] was 0.83 μM per min. For the same molecule, the “initial rate of product formation, 1 mM SA” value [6] was 5.18 μM per min, the “initial rate of product formation, 5 mM SA” value [6] was 9.2 μM per min and the “initial rate of product formation, 10 mM SA” value [6] was 5.9 μM per min. For the same molecule, the “Ratio of Activity pHBA/SA” value [7] was 0.141, the “pHBA/SA ratio of enzyme activity” value ([7]; 1 mM substrate) was 0.044 and the “pHBA/SA ratio of enzyme activity” value ([7]; 5 mM substrate) was 0.049. The “pHBA/SA ratio of enzyme activity” value ([7]; 10 mM substrate) was 0.141.

B2: Grape GT: Vitis sp. UDP-glucosyltransferase, SEQ ID NO:18, recombinant from E. coli (protein)
chain: MGSESKLVHVFLVSFPGQGHVNPLLRLGKRLASKGLLVTFSTPESIGKQMRKASNITDQPTPVGEGLIRFEFFEDEWDENEPKRQDLDLYLPQLELVGKKVLPQMIKKHAEQDRPVSCLINNPFIPWVSDVAADLGIPSAMLWVQSCACFSTYYHYYHGLVPFPSEAEPEIDVQLPCMPLLKYDEVASFLYPTTPYPFLRRAILGQYRNLDKPFCILMDTFQELEPEVIEYMSKICPIKPVGPLYKNPKVPNAAVRGDFMKADDCIEWLDSKPPSSIVYVSFGSVVYLKQDQVDEIAYGLLNSGLQFLWVMKPPHKDAGLELLVLPEGFLEKAGDKGKVVQWSPQEQVLAHPSVACFVTHCGWNSSMEALSSGMPVVAFPQWGDQVTDAKYLVDEFKIGVRMCRGEAENKLITRDEVEKCLIEATTGPKAAELKQNAMKWKKAAEQAVAEGGSSERNLQGFVDEVRRRSIEIIYKTKI
modifications: Vitis ssp.
With B2 the “initial rate of product formation, 1 mM pHBA” value [5] was 96.4 μM per min, the “initial rate of product formation, 5 mM pHBA” value [5] was 177 μM per min and the “initial rate of product formation, 10 mM pHBA” value [5] was 181 μM per min. The “initial rate of product formation, 1 mM SA” value [6] was 22.8 μM per min, the “initial rate of product formation, 5 mM SA” value [6] was 16.6 μM per min and the “initial rate of product formation, 10 mM SA” value [6] was 4.8 μM per min. The “substrate preference for pHBA over sinapic acid” value ([7]; 10 mM substrate concentration) was 37.7 fold, the “rate of pHBA glucosylation relative to sinapic acid” value ([7]; 10 mM substrate, cell-free extract) was about 40 times and the “Ratio of Activity pHBA/SA” value [7] was 37.7. The “pHBA/SA ratio of enzyme activity” value ([7]; 1 mM substrate) was 4.23, the “pHBA/SA ratio of enzyme activity” value ([7]; 5 mM substrate) was 10.7 and the “pHBA/SA ratio of enzyme activity” value ([7]; 10 mM substrate) was 37.7. For the same molecule, the “glucose conjugates detected by HPLC” value ([8]; pH 6.0, 7.0 or 8.0, 0.15 mM or 5 mM pHBA, 0.47 μM purified Grape GT, 15 min) was “the only glucose conjugate that was detected in the in vitro assay was the pHBA glucose ester”, the “glucosylated products detected by HPLC” value ([8]; purified enzyme, pH 7.3, 0.3 mM pHBA, 5 mM UDP-glucose, 25° C. (Example 6)) was “the only glucosylated product that was detected in the fractionated enzyme reaction mixture was the pHBA glucose ester” and the stability to freeze/thaw [9] was “stable to multiple cycles of freeze/thaw without significant loss of enzyme activity”.
